Among the data in patent US20260098059A1 (ENDOMET BIOSCIENCES, published 2026) are Kd values, retold here.

The labels stand for the following.
T1: β-catenin (UniProt P35222 134-665, limits assumed, biotinylated in the SPR and plate assays)
T1 construct: also called beta catenin; biotinylated β-catenin
T1 sequence (looked up): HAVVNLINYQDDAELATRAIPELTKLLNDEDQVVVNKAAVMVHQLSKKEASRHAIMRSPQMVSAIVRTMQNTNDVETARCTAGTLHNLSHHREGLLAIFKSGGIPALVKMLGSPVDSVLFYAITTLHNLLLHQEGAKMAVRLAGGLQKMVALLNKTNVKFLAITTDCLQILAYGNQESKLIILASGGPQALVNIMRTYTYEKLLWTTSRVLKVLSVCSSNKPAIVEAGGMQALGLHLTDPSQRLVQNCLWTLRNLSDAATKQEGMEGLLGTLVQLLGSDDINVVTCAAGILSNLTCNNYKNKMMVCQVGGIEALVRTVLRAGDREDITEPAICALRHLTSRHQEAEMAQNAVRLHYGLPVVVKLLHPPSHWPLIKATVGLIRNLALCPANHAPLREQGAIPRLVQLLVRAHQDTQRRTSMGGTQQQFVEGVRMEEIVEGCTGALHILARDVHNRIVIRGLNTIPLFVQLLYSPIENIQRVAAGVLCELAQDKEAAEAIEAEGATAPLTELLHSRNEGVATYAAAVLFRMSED

B1: SEQ ID NO: 414 (peptide)
peptide: WAQKILDEHGXRVWG
HELM: PEPTIDE1{[ac].W.[meA].Q.K.I.L.D.E.H.[O=C([C@@H](N[*:1])C1CCCCC1)[*:2]].[Aib].R.V.W.G.[am]}$PEPTIDE1,PEPTIDE1,5:R3-9:R3$$$V2.0
SMILES: CC[C@H](C)[C@@H]1NC(=O)[C@@H](NC(=O)[C@H](CCC(N)=O)NC(=O)[C@H](C)N(C)C(=O)[C@H](Cc2c[nH]c3ccccc23)NC(C)=O)CCCCNC(=O)CC[C@@H](C(=O)N[C@@H](Cc2c[nH]cn2)C(=O)N[C@H](C(=O)NC(C)(C)C(=O)N[C@@H](CCCNC(=N)N)C(=O)N[C@H](C(=O)N[C@@H](Cc2c[nH]c3ccccc23)C(=O)NCC(N)=O)C(C)C)C2CCCCC2)NC(=O)[C@H](CC(=O)O)NC(=O)[C@H](CC(C)C)NC1=O
B2: SEQ ID NO: 427 (peptide)
peptide: W[NMeA]QEILDKH[Chg]QRVWG-NH2
modifications: lactam 4-8; not fully specified (N-terminus); printed as H17C8C(O)NH-W-NMeA-QE*ILDK*H-Chg-QRVWG-NH2
B3: SEQ ID NO: 419 (peptide)
peptide: AWAQKILDEHGQRVWG
HELM: PEPTIDE1{[ac].[bAla].W.[meA].Q.K.I.L.D.E.H.[O=C([C@@H](N[*:1])C1CCCCC1)[*:2]].Q.R.V.W.G.[am]}$PEPTIDE1,PEPTIDE1,6:R3-10:R3$$$V2.0
SMILES: CC[C@H](C)[C@@H]1NC(=O)[C@@H](NC(=O)[C@H](CCC(N)=O)NC(=O)[C@H](C)N(C)C(=O)[C@H](Cc2c[nH]c3ccccc23)NC(=O)CCNC(C)=O)CCCCNC(=O)CC[C@@H](C(=O)N[C@@H](Cc2c[nH]cn2)C(=O)N[C@H](C(=O)N[C@@H](CCC(N)=O)C(=O)N[C@@H](CCCNC(=N)N)C(=O)N[C@H](C(=O)N[C@@H](Cc2c[nH]c3ccccc23)C(=O)NCC(N)=O)C(C)C)C2CCCCC2)NC(=O)[C@H](CC(=O)O)NC(=O)[C@H](CC(C)C)NC1=O
B4: SEQ ID NO: 426 (peptide)
peptide: WAQEILDKHGQRVWG
HELM: PEPTIDE1{[ac].W.[meA].Q.E.I.L.D.K.H.[O=C([C@@H](N[*:1])C1CCCCC1)[*:2]].Q.R.V.W.G.[am]}$PEPTIDE1,PEPTIDE1,5:R3-9:R3$$$V2.0
SMILES: CC[C@H](C)[C@@H]1NC(=O)[C@@H](NC(=O)[C@H](CCC(N)=O)NC(=O)[C@H](C)N(C)C(=O)[C@H](Cc2c[nH]c3ccccc23)NC(C)=O)CCC(=O)NCCCC[C@@H](C(=O)N[C@@H](Cc2c[nH]cn2)C(=O)N[C@H](C(=O)N[C@@H](CCC(N)=O)C(=O)N[C@@H](CCCNC(=N)N)C(=O)N[C@H](C(=O)N[C@@H](Cc2c[nH]c3ccccc23)C(=O)NCC(N)=O)C(C)C)C2CCCCC2)NC(=O)[C@H](CC(=O)O)NC(=O)[C@H](CC(C)C)NC1=O
B5: SEQ ID NO: 429 (peptide)
peptide: RRWPQKILDEHVRRVWR
HELM: PEPTIDE1{[ac].R.R.W.P.Q.K.I.L.D.E.H.V.R.R.V.W.R.[am]}$PEPTIDE1,PEPTIDE1,7:R3-11:R3$$$V2.0
SMILES: CC[C@H](C)[C@@H]1NC(=O)[C@@H](NC(=O)[C@H](CCC(N)=O)NC(=O)[C@@H]2CCCN2C(=O)[C@H](Cc2c[nH]c3ccccc23)NC(=O)[C@H](CCCNC(=N)N)NC(=O)[C@H](CCCNC(=N)N)NC(C)=O)CCCCNC(=O)CC[C@@H](C(=O)N[C@@H](Cc2c[nH]cn2)C(=O)N[C@H](C(=O)N[C@@H](CCCNC(=N)N)C(=O)N[C@@H](CCCNC(=N)N)C(=O)N[C@H](C(=O)N[C@@H](Cc2c[nH]c3ccccc23)C(=O)N[C@@H](CCCNC(=N)N)C(N)=O)C(C)C)C(C)C)NC(=O)[C@H](CC(=O)O)NC(=O)[C@H](CC(C)C)NC1=O
B6: SEQ ID NO: 425 (peptide)
peptide: WAQXILDEHGQRVWG
HELM: PEPTIDE1{[CCCCCCCCC(=O)[*:2]].W.[meA].Q.[Orn].I.L.D.E.H.[O=C([C@@H](N[*:1])C1CCCCC1)[*:2]].Q.R.V.W.G.[am]}$PEPTIDE1,PEPTIDE1,5:R3-9:R3$$$V2.0
SMILES: CCCCCCCCC(=O)N[C@@H](Cc1c[nH]c2ccccc12)C(=O)N(C)[C@@H](C)C(=O)N[C@@H](CCC(N)=O)C(=O)N[C@H]1CCCNC(=O)CC[C@@H](C(=O)N[C@@H](Cc2c[nH]cn2)C(=O)N[C@H](C(=O)N[C@@H](CCC(N)=O)C(=O)N[C@@H](CCCNC(=N)N)C(=O)N[C@H](C(=O)N[C@@H](Cc2c[nH]c3ccccc23)C(=O)NCC(N)=O)C(C)C)C2CCCCC2)NC(=O)[C@H](CC(=O)O)NC(=O)[C@H](CC(C)C)NC(=O)[C@H]([C@@H](C)CC)NC1=O
B7: SEQ ID NO: 433 (peptide)
peptide: AQKILNEHGQRVWG
HELM: PEPTIDE1{[ac].[meA].Q.K.I.L.N.E.H.[O=C([C@@H](N[*:1])C1CCCCC1)[*:2]].Q.R.V.W.G.[am]}$PEPTIDE1,PEPTIDE1,4:R3-8:R3$$$V2.0
SMILES: CC[C@H](C)[C@@H]1NC(=O)[C@@H](NC(=O)[C@H](CCC(N)=O)NC(=O)[C@H](C)N(C)C(C)=O)CCCCNC(=O)CC[C@@H](C(=O)N[C@@H](Cc2c[nH]cn2)C(=O)N[C@H](C(=O)N[C@@H](CCC(N)=O)C(=O)N[C@@H](CCCNC(=N)N)C(=O)N[C@H](C(=O)N[C@@H](Cc2c[nH]c3ccccc23)C(=O)NCC(N)=O)C(C)C)C2CCCCC2)NC(=O)[C@H](CC(N)=O)NC(=O)[C@H](CC(C)C)NC1=O
B8: SEQ ID NO: 424 (peptide)
peptide: WAQXILDEHGQRVWG
HELM: PEPTIDE1{[ac].W.[meA].Q.[Orn].I.L.D.E.H.[O=C([C@@H](N[*:1])C1CCCCC1)[*:2]].Q.R.V.W.G.[am]}$PEPTIDE1,PEPTIDE1,5:R3-9:R3$$$V2.0
SMILES: CC[C@H](C)[C@@H]1NC(=O)[C@@H](NC(=O)[C@H](CCC(N)=O)NC(=O)[C@H](C)N(C)C(=O)[C@H](Cc2c[nH]c3ccccc23)NC(C)=O)CCCNC(=O)CC[C@@H](C(=O)N[C@@H](Cc2c[nH]cn2)C(=O)N[C@H](C(=O)N[C@@H](CCC(N)=O)C(=O)N[C@@H](CCCNC(=N)N)C(=O)N[C@H](C(=O)N[C@@H](Cc2c[nH]c3ccccc23)C(=O)NCC(N)=O)C(C)C)C2CCCCC2)NC(=O)[C@H](CC(=O)O)NC(=O)[C@H](CC(C)C)NC1=O
B9: SEQ ID NO: 282/493 (peptide)
peptide: H-RKKRRQRRR[Peg2]KW[Cha]LI[Abu]AWD-OH
B10: SEQ ID NO: 246 (peptide)
peptide: XWFLIXAWD
HELM: PEPTIDE1{[O=C(CCCCCN[*:1])[*:2]].W.F.L.I.[Abu].A.W.D}$PEPTIDE1,PEPTIDE1,1:R1-9:R3$$$V2.0
SMILES: CC[C@@H]1NC(=O)[C@H]([C@@H](C)CC)NC(=O)[C@H](CC(C)C)NC(=O)[C@H](Cc2ccccc2)NC(=O)[C@H](Cc2c[nH]c3ccccc23)NC(=O)CCCCCNC(=O)C[C@@H](C(=O)O)NC(=O)[C@H](Cc2c[nH]c3ccccc23)NC(=O)[C@H](C)NC1=O
B11: SEQ ID NO: 423 (peptide)
peptide: WAQXILDEHGQRVWG
HELM: PEPTIDE1{W.[meA].Q.[Orn].I.L.D.E.H.[O=C([C@@H](N[*:1])C1CCCCC1)[*:2]].Q.R.V.W.G.[am]}$PEPTIDE1,PEPTIDE1,4:R3-8:R3$$$V2.0
SMILES: CC[C@H](C)[C@@H]1NC(=O)[C@@H](NC(=O)[C@H](CCC(N)=O)NC(=O)[C@H](C)N(C)C(=O)[C@@H](N)Cc2c[nH]c3ccccc23)CCCNC(=O)CC[C@@H](C(=O)N[C@@H](Cc2c[nH]cn2)C(=O)N[C@H](C(=O)N[C@@H](CCC(N)=O)C(=O)N[C@@H](CCCNC(=N)N)C(=O)N[C@H](C(=O)N[C@@H](Cc2c[nH]c3ccccc23)C(=O)NCC(N)=O)C(C)C)C2CCCCC2)NC(=O)[C@H](CC(=O)O)NC(=O)[C@H](CC(C)C)NC1=O
B12: SEQ ID NO: 417 (peptide)
peptide: WAXKILDEHGQRVWG
HELM: PEPTIDE1{W.[meA].[Aib].K.I.L.D.E.H.[O=C([C@@H](N[*:1])C1CCCCC1)[*:2]].Q.R.V.W.G.[am]}$PEPTIDE1,PEPTIDE1,4:R3-8:R3$$$V2.0
SMILES: CC[C@H](C)[C@@H]1NC(=O)[C@@H](NC(=O)C(C)(C)NC(=O)[C@H](C)N(C)C(=O)[C@@H](N)Cc2c[nH]c3ccccc23)CCCCNC(=O)CC[C@@H](C(=O)N[C@@H](Cc2c[nH]cn2)C(=O)N[C@H](C(=O)N[C@@H](CCC(N)=O)C(=O)N[C@@H](CCCNC(=N)N)C(=O)N[C@H](C(=O)N[C@@H](Cc2c[nH]c3ccccc23)C(=O)NCC(N)=O)C(C)C)C2CCCCC2)NC(=O)[C@H](CC(=O)O)NC(=O)[C@H](CC(C)C)NC1=O

Where “and” joins values, the source holds several entries; their conditions need not be identical. Equal entries are not always repeated. Bridges are numbered along the chain shown (N, C = ends). Where no end group is shown, it is not given here. [ ]: non-standard residue; d: D form. Cha = N[C@@H](CC1CCCCC1)C(=O)O; Chg = N[C@H](C(=O)O)C1CCCCC1; NMeA = CN[C@@H](C)C(=O)O; Abu = CC[C@H](N)C(=O)O

The assay addresses T1, β-catenin. Briefly: competitive FP. The text has this:
Fluorescence polarization (FP) is another method used to analyze protein-ligand interactions. This methodology measures the change in fluorescence light emitted by a labelled compound free vs. conjugated to another compound in solution. Upon binding of the fluorescent molecule to a complex, polarization increases because of limited rotation of the fluorescent tracer. Competitive FP is often utilized in drug screens as it is formatted for high throughput screens in a plate format. This immunoassay is performed by introducing a non-conjugated drug to compete for binding to the labelled competitor-ligand complex, leading to a reduction in polarization. […] Exemplary methodology is described in Example 13. Data were analyzed and plotted in Microsoft Excel (Microsoft, Redmond, WA).
Varying concentrations of β-catenin inhibitor candidate (SEQ ID NO: 404) were then added in a series of serial dilutions from 10 nM to 30 uM of inhibitor in different wells of the plate. The fluorescence polarization was read by Infinite M1000 (Tecan, Baldwin Park CA) at excitation wavelength of 470 nm and measured at emission wavelength of 520 nm. […] The experiments were performed three times and data were analyzed and plotted in Microsoft Excel (Microsoft, Redmond, WA).
For B1, the dissociation constant (Kd) (as a rule, the free concentration of one partner at which half of the binding sites on the other are occupied at equilibrium, for simple one-to-one binding) was at most 400 nM.
In the case of B2, the Kd is at most 400 nM.
On to B3, for which the Kd is at most 400 nM.
The same measure for B4: at most 400 nM.
For the molecule B5, the Kd is > 400 nM and ≤ 1000 nM.
The figure for B6 is at most 400 nM.
The figure for B7 is > 400 nM and ≤ 1000 nM; for B8 it is at most 400 nM; for B9 it is at most 400 nM.
The same measure for B10: at most 400 nM.
Consider B11, for which the dissociation constant Kd was > 400 nM and ≤ 1000 nM.
In turn, B12 had a Kd of at most 400 nM.
